The results in this text go back to PMC7954978.

This assay addresses GltPh-XL2 (cysteine-less GltPh with L152C and G351C) (UniProt O59010). Nature of the assay: cryo-EM structure.

A word on the stoichiometry N: it is the number of molecules, sites or subunits per partner or assembly.

For “GltPh-XL2 (cysteine-less GltPh with L152C and G351C) (from UniProt O59010 1-417) (natural protein)”, the stoichiometry N was found to be 3.
